Target: calreticulin (CRT) (UniProt P27797)
Test: SPR

Chain of UniProt P27797 (P27797 18-417): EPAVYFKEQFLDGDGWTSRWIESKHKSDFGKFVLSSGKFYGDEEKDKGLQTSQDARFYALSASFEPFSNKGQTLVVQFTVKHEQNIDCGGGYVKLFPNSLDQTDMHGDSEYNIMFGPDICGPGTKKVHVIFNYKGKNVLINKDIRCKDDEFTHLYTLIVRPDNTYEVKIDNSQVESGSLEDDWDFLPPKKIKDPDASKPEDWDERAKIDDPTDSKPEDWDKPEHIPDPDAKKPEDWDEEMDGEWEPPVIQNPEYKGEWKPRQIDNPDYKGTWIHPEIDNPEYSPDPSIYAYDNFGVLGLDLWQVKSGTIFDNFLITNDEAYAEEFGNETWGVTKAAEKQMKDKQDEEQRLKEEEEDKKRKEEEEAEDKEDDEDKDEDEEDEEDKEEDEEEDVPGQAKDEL

| Kd | koff | kon | Substance |
| --- | --- | --- | --- |
| 38 nM | 0.000482 s⁻¹ | 12800 M⁻¹ s⁻¹ | Glc1Man9GlcNAc2-RNase (1) (from UniProt P61823 27-150) (enzyme) |
| 110 nM | 0.00199 s⁻¹ | 18100 M⁻¹ s⁻¹ | Gal1Glc1Man9GlcNAc2-RNase (2) (from UniProt P61823 27-150) (enzyme) |

Source: publication PMC3175422
